Experimental data reported in patent US20130066046A1.
Values belong to the molecule of their own block, whether it stands above or below them.

Experiments:
[1] = target: human serum albumin (human) (UniProt P02768); assay: SPR (Biacore), HSA immobilised on CM5 chip, 40 nM, mean+/-SD, N=4
[2] = target: human serum albumin (human) (UniProt P02768); assay: competitive ELISA: soluble binding protein competes with plate-immobilised single maximum moiety for biotinylated human serum albumin, streptavidin-peroxidase readout
[3] = target: human serum albumin (human) (UniProt P02768); assay: annotation in the curve's label on the competitive ELISA plot; the sheet does not say how this Kd was obtained (text paragraph 46 speaks of a reported Kd ~1x10^-9 M)
[4] = target: human serum albumin (human) (UniProt P02768); assay: competitive ELISA, slope around the 50% inhibition point (Illustration 1.2)
[5] = target: human serum albumin (human) (UniProt P02768); assay: competitive ELISA, soluble construct against immobilised binding protein for biotinylated HSA (Illustration 1.2)
[6] = target: human serum albumin (human) (UniProt P02768); assay: flow cytometry, binding protein immobilised on beads, fluorescein labeled albumin (Illustration 1.5)
[7] = target: human serum albumin (human) (UniProt P02768); assay: SPR (Biacore), HSA immobilised on CM5 chip
[8] = target: human serum albumin (human) (UniProt P02768); assay: flow cytometry on beads, ratio against the single maximum moiety (Illustration 1.5)
[9] = target: human serum albumin (human) (UniProt P02768); assay: competitive ELISA, ratio against construct 1 (Illustration 1.2)
[10] = target: human serum albumin (human) (UniProt P02768); assay: SPR (Biacore), HSA immobilised on CM5 chip, limited number of replicates
[11] = target: human IgG (from human serum; human immunoglobin G standard); assay: extraction from diluted human serum with coated silica beads, gel/blot comparison with standards (Illustration 2.2)
IgG (biotinylated) [12] = assay: competitive ELISA, ratio against one maximum domain (Illustration 2.1)
IgG (biotinylated) [13] = assay: competitive ELISA, soluble protein against immobilised two-moiety cassette for biotinylated IgG (Illustration 2.1)
IgG (biotinylated) [14] = assay: competitive ELISA, slope around the 50% inhibition point (Illustration 2.1)

Kd [1]: 0.7 nM
kon [1]: 123000 M⁻¹ s⁻¹
IC50 (read off the curve) (pmoles per well) [2]: 10
Kd [3]: 10 nM
Molecule: native material analogous to that of Sjöbring et al. (1991), streptococcal protein G

rate of change [4]: 8.5
IC50 [5]: 15 nM
Kd [6]: 160 nM
half-life [7]: 7410 days
F (ratio of apparent Kd, two maximum moieties / one maximum moiety) [8]: 0.67
R (ratio of 50% inhibition point, two maximum moieties / one maximum moiety) [9]: 0.4
S (ratio of rate of change, two maximum moieties / one maximum moiety) [9]: 1.7
Kd [10]: < 0.01 nM
koff [10]: < 1e-05 s⁻¹
kon [10]: 300000 M⁻¹ s⁻¹
B1: Construct "2" (functional cassette with two maximum moieties for human serum albumin) (designed binder, part only; not given: spacer and terminal segment, not shown: small tags and cut ends)
chain, part: AAALDQAKQAALKEFDRYGVSNYYKNLINKAKTVEGIMELQAQVVESAKKARISEATDGLSDFLKSQTSAEDTLKSIKLSEAKEMAIRELDAQGVSDFYKNKINNAKTVEGVVALKDLILNSLAAALDQAKQAALKEFDRYGVSNYYKNLINKAKTVEGIMELQAQVVESAKKARISEATDGLSDFLKSQTSAEDTLKSIKLSEAKEMAIRELDAQGVSDFYKNKINNAKTVEGVVALKDLILNSL

percent of IgG extracted [11]: > 99%
R (ratio of 50% inhibition point, two maximum moieties / one maximum moiety) (IgG (biotinylated) [12]): 0.6
S (ratio of rate of change, two maximum moieties / one maximum moiety) (IgG (biotinylated) [12]): 1.6
IC50 (IgG (biotinylated) [13]): 1 nM
rate of change (IgG (biotinylated) [14]): 50
B2: functional cassette with two maximum moieties (six minimum moieties) for IgG (designed binder)
chain: LGIDPFTALPKTDTYKLILNGKTLKGETTTEAVDAATAEKVFKQYANDNGVDGEWTYDDATKTFTVTEKPEVIDASELTPAVTTYKLVINGKTLKGETTTEAVDAATAEKVFKQYANDNGVDGEWTYDDATKTFTVTEKPEVIDASELTPAVTTYKLVINGKTLKGETTTKAVDAETAEKAFKQYANDNGVDGVWTYDDATKTFTVTEMVTESRALPKTDTYKLILNGKTLKGETTTEAVDAATAEKVFKQYANDNGVDGEWTYDDATKTFTVTEKPEVIDASELTPAVTTYKLVINGKTLKGETTTEAVDAATAEKVFKQYANDNGVDGEWTYDDATKTFTVTEKPEVIDASELTPAVTTYKLVINGKTLKGETTTKAVDAETAEKAFKQYANDNGVDGVWTYDDATKTFTVTEMVTEKGELKLCITGDALVALPEGES
